Reference: patent publication US20220372120A1 (GEMINI THERAPEUTICS SUB, published 2022)
Values joined by “and” are separate entries in the source; they are usually repeats but may differ in a detail not shown here. Equal values may be shown once.

What was measured:
[1] = biological target: purified C3b (Complement Technologies) (UniProt P01024); assay: SPR (Biacore T200, 37 C), C3b amine-coupled to chip, pdFH injected alone, equilibrium analysis
Human purified factor H [2] = biological target: T1, Human purified factor H (human, UniProt P08603 19-1231); assay: cell-based or functional assay
T1 sequence (P08603 19-1231): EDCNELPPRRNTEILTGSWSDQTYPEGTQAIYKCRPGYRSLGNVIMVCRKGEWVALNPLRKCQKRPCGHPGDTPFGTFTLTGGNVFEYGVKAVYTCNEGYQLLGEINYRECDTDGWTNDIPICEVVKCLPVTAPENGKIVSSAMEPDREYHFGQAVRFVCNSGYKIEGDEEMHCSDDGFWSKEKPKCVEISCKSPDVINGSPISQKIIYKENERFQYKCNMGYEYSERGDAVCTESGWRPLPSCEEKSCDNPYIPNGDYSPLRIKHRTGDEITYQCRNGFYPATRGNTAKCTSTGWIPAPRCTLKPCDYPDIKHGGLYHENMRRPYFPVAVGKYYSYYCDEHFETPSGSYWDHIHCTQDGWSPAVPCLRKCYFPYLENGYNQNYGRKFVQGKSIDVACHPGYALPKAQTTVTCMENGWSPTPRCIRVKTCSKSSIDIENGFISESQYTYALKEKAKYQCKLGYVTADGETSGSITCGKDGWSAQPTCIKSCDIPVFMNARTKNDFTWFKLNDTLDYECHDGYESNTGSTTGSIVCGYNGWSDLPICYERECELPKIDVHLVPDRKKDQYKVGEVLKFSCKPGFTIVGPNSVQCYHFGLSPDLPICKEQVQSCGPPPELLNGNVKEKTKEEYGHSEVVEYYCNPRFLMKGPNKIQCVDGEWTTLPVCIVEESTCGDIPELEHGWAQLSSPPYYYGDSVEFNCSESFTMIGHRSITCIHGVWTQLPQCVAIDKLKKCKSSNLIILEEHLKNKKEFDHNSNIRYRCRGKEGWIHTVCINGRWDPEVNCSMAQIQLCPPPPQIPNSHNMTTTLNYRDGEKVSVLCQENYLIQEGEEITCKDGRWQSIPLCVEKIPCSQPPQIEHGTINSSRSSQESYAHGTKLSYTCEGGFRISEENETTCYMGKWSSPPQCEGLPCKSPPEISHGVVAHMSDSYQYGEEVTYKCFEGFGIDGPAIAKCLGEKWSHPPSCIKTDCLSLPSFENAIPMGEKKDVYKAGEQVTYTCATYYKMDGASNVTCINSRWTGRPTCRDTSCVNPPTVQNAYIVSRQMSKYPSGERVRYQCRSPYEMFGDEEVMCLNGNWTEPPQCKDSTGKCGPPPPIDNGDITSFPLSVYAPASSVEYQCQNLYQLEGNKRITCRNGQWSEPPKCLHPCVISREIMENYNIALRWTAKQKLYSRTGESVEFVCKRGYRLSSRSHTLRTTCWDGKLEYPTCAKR

Human purified factor H [3] = biological target: T1, Human purified factor H; assay: cell-based or functional assay; remark: listed apart in the source
Human purified factor H [4] = biological target: T1, Human purified factor H; assay: cell-based or functional assay; remark: listed apart in the source
Human purified factor H [5] = biological target: T1, Human purified factor H; assay: cell-based or functional assay; remark: listed apart in the source
Human purified factor H [6] = biological target: T1, Human purified factor H; assay: SPR (BiaCore T200), antibody captured on Protein A or Protein G chip, full length FH flowed over
Method: To determine binding affinity of Antibodies 1-4, surface plasmon resonance (SPR) experiments were performed using a BiaCore T200 (GE Healthcare) and CMS sensor chips (GE Healthcare) in accordance with the manufacturer's instructions. Briefly, Antibodies […] or anti-FHR-1.3B4 were captured onto a Protein A or Protein G coupled chip and full length FH was flown over the captured moAB at decreasing concentrations.

Sequence of Human purified factor H (from UniProt P08603 19-1231) (P08603 19-1231): as above

Molecule	Kd [1]	IC50 of inhibition of C3b deposition on LPS, Replicate 1 (Human purified factor H [2])	IC50 of inhibition of C3b deposition on LPS, Replicate 2 (Human purified factor H [2])	IC50 of inhibition of C3b deposition on LPS, 10% normal human serum (Human purified factor H [3])	IC50 of inhibition of SRBC hemolysis, 10% human serum with anti-FH.09 (Human purified factor H [4])	IC50 of inhibition of SRBC hemolysis, first replicate (Human purified factor H [5])	IC50 of inhibition of SRBC hemolysis, second replicate (Human purified factor H [5])	Kd (Human purified factor H [6])	koff (Human purified factor H [6])	kon (Human purified factor H [6])
Human purified factor H (from UniProt P08603 19-1231)	1300 nM									
Antibody 1 (antibody, V domains shown) VH: QVQLQESGPGLVKPSQTLSLTCTVSGFSLTNYGVYWIRQHPGKGLEWIGVVWSGGTTEFNPSLKSRVTISKDTSKNQVSLKLSSVTAADTAVYYCARNFGNYAMDYWGQGTSVTVSS VL: DIQLTQSPSSLSASVGDRVTITCKASSSVTYLHWYQQKPGKAPKPLIYATSNLASGVPSRFSGSGSGTDFTLTISSLQPEDFATYYCQHRSSSNPLTFGAGTKLELK		3.5 µg/ml and 23.4 nM	2.26 µg/ml and 15.1 nM	2.26 µg/ml and 15.1 nM	10.6 ug/ml and 70.7 nM	10.7 µg/ml and 71.3 nM	10.9 µg/ml and 72.7 nM	0.5 nM	2.67e-05 s⁻¹	53800 M⁻¹ s⁻¹
Antibody 2 (antibody, V domains shown) VH: QVQLQESGPGLVKPSQTLSLTCTVSGFSLTNYGVYWIRQHPGKGLEWIGVIWSGGTTEYNPSMKSRVTISKDTSKNQVSLKLSSVTAADTAVYYCARNFGNYAMDFWGQGTSVTVSS VL: DIQLTQSPSSLSASVGDRVTITCKASSSVTYLHWYQQKPGKAPKPLIYATSNLASGVPSRFSGSGSGTDFTLTISSLQPEDFATYYCQHRSSSNPLTFGAGTKLELK		3.68 µg/ml and 24.5 nM	2.82 µg/ml and 18.8 nM	2.82 µg/ml and 18.8 nM	10.1 ug/ml and 67.3 nM	11.4 µg/ml and 76.3 nM	10.4 µg/ml and 69.3 nM	0.52 nM	3.06e-05 s⁻¹	58500 M⁻¹ s⁻¹
Antibody 3 (antibody, V domains shown) VH: QVQLQESGPGLVKPSQTLSLTCTVSGFSLTNYGVYWIRQHPGKGLEWIGVVWSGGTTEFNPSLKSRVTISKDTSKNQVSLKLSSVTAADTAVYYCARNFGNYAMDYWGQGTSVTVSS VL: DIQLTQSPSSLSASVGDRVTITCRASTSVTYMHWYQQKPGKAPKPLIYASSNLASGVPSRFSGSGSGTDFTLTISSLQPEDFATYYCQHRSSSNPLTFGAGTKLELK		4.14 µg/ml and 27.6 nM	3.47 µg/ml and 23.1 nM	3.47 µg/ml and 23.1 nM	9.4 ug/ml and 62.7 nM	11.1 µg/ml and 74 nM	9.1 µg/ml and 60.7 nM	0.85 nM	4.07e-05 s⁻¹	48500 M⁻¹ s⁻¹
Antibody 4 (antibody, V domains shown) VH: QVQLQESGPGLVKPSQTLSLTCTVSGFSLTNYGVYWIRQHPGKGLEWIGVIWSGGTTEYNPSMKSRVTISKDTSKNQVSLKLSSVTAADTAVYYCARNFGNYAMDFWGQGTSVTVSS VL: DIQLTQSPSSLSASVGDRVTITCRASTSVTYMHWYQQKPGKAPKPLIYASSNLASGVPSRFSGSGSGTDFTLTISSLQPEDFATYYCQHRSSSNPLTFGAGTKLELK		4.34 µg/ml and 28.9 nM	3.51 µg/ml and 23.4 nM	3.51 µg/ml and 23.4 nM	11.5 ug/ml and 76.7 nM	11.5 µg/ml and 76.5 nM	11.8 µg/ml and 78.5 nM	0.58 nM	3.14e-05 s⁻¹	55300 M⁻¹ s⁻¹
FHR-1.3B4 (antibody, V domains shown, Mouse monoclonal antibody raised in BALB/c mice against recombinant human FHR-1 (hybridoma); kappa light chain implied by capture on rat anti-mouse kappa RM19; also called anti-FHR-1.3B4; anti-FHR-1 3B4) VH: QVQLRQSGPGLVQPSQSLSITCTVSGFSLTNYGVYWVRQSPGKGLEWLGVIWSGGTTDYSAAFISRLSISKDNSKSQVFFKMNSLQADDTAIYYCARNFGNYAMDYWGQGTSVTVSS VL: QIVLSQSPTILSASPGEKVTMTCRASSSVTYMHWYQQKPGSSPKPWIYATSNLASGVPARFSGSGSGTSYSLTISRVEAEDAATYYCQQRSSSNPLTFGAGTKLELK				38 nM and 5.7 µg/ml	11.4 ug/ml and 76 nM			0.91 nM	5.32e-05 s⁻¹	59500 M⁻¹ s⁻¹
